Source: PMC7954794, “Protein context shapes the specificity of SH3 domain-mediated interactions in vivo” (Nature Communications, 2021)

B1: YJR076C (protein, UniProt P32458 2-415, looked up)
Cell division control protein …: SGIIDASSALRKRKHLKRGITFTVMIVGQSGSGRSTFINTLCGQQVVDTSTTILLPTDTSTEIDLQLREETVELEDDEGVKIQLNIIDTPGFGDSLDNSPSFEIISDYIRHQYDEILLEESRVRRNPRFKDGRVHCCLYLINPTGHGLKEIDVEFIRQLGSLVNIIPVISKSDSLTRDELKLNKKLIMEDIDRWNLPIYNFPFDEDEISDEDYETNMYLRTLLPFAIIGSNEVYEMGGDVGTIRGRKYPWGILDVEDSSISDFVILRNALLISHLHDLKNYTHEILYERYRTEALSGESVAAESIRPNLTKLNGSSSSSTTTRRNTNPFKQSNNINNDVLNPASDMHGQSTGENNETYMTREEQIRLEEERLKAFEERVQQELLLKRQELLQREKELREIEARLEKEAKIKQEE
B2: YDL225W (protein, UniProt Q07657 2-551, looked up)
Seventh homolog of septin 1: STASTPPINLFRRKKEHKRGITYTMLLCGPAGTGKTAFANNLLETKIFPHKYQYGKSNASISSNPEVKVIAPTKVVSFNSKNGIPSYVSEFDPMRANLEPGITITSTSLELGGNKDQGKPEMNEDDTVFFNLIMTHGIGENLDDSLCSEEVMSYLEQQFDIVLAEETRIKRNPRFEDTRVHVALYFIEPTGHGLREVDVELMKSISKYTNVLPIITRADSFTKEELTQFRKNIMFDVERYNVPIYKFEVDPEDDDLESMEENQALASLQPFAIITSDTRDSEGRYVREYPWGIISIDDDKISDLKVLKNVLFGSHLQEFKDTTQNLLYENYRSEKLSSVANAEEIGPNSTKRQSNAPSLSNFASLISTGQFNSSQTLANNLRADTPRNQVSGNFKENEYEDNGEHDSAENEQEMSPVRQLGREIKQENENLIRSIKTESSPKFLNSPDLPERTKLRNISETVPYVLRHERILARQQKLEELEAQSAKELQKRIQELERKAHELKLREKLINQNKLNGSSSSINSLQQSTRSQIKKNDTYTDLASIASGRD
B3: YLR314C (protein, UniProt P32457 2-520, looked up)
Cell division control protein …: SLKEEQVSIKQDPEQEERQHDQFNDVQIKQESQDHDGVDSQYTNGTQNDDSERFEAAESDVKVEPGLGMGITSSQSEKGQVLPDQPEIKFIRRQINGYVGFANLPKQWHRRSIKNGFSFNLLCVGPDGIGKTTLMKTLFNNDDIEANLVKDYEEELANDQEEEEGQGEGHENQSQEQRHKVKIKSYESVIEENGVKLNLNVIDTEGFGDFLNNDQKSWDPIIKEIDSRFDQYLDAENKINRHSINDKRIHACLYFIEPTGHYLKPLDLKFMQSVYEKCNLIPVIAKSDILTDEEILSFKKTIMNQLIQSNIELFKPPIYSNDDAENSHLSERLFSSLPYAVIGSNDIVENYSGNQVRGRSYPWGVIEVDNDNHSDFNLLKNLLIKQFMEELKERTSKILYENYRSSKLAKLGIKQDNSVFKEFDPISKQQEEKTLHEAKLAKLEIEMKTVFQQKVSEKEKKLQKSETELFARHKEMKEKLTKQLKALEDKKKQLELSINSASPNVNHSPVPTKKKGFLR
B4: YER008C (protein, UniProt P33332 1-1336, looked up)
Exocyst complex component SEC3: MRSSKSPFKRKSHSRETSHDENTSFFHKRTISGSSAHHSRNVSQGAVPSSAPPVSGGNYSHKRNVSRASNSSQTSNFLAEQYERDRKAIINCCFSRPDHKTGEPPNNYITHVRIIEDSKFPSSRPPPDSKLENKKKRLLILSAKPNNAKLIQIHKARENSDGSFQIGRTWQLTELVRVEKDLEISEGFILTMSKKYYWETNSAKERTVFIKSLITLYIQTFEGHVPELVNWDLSLFYLDERSYQRAVITNRPGSVSPIKSPTSNFTTNTTQSVGSVPFSAPTERTRRSETESVNPVSTPASVEYHAGMKSLNKAPYSSNSTLNEVNKRYELEQQQQQEEAELRRLEEQKRLQLQKENEMKRLEEERRIKQEERKRQMELEHQRQLEEEERKRQMELEAKKQMELKRQRQFEEEQRLKKERELLEIQRKQREQETAERLKKEEQEALAKKEEEEKSKRNKVDNESYTQEINGKVDNLLEDLNAVLAEETETTPTMQNGTYVPERSTARAHDQLKKPLNIAKVESLGGSDLNDSISLSDEIAGLNTSNLSGEDQDEKNDLSFEKGDEVRYSNNFEGEAPHVYHEVSIIQEEAPAVSQKLILPEENNESEALIESKEEIKTMENIDDEVLLEILTDINWSIEDDADSMIERIDLRLAETEYLFNQNLLSLQKIGPNIRPYEDKVNDECHRIIPTLSLFLMEMSNFSNDIENVESQDNGLQVESANKKLLWNTLDELLKTVSLDEISLNQLLECPIREKNLPWMENQLNLLLKAFQAIGSDGNEVEYNLREISGLKQRLQFYEKVTKIFLNRIVEEMQKKFSNIRGQDISHDQMIRILTTLLIFSPLILFCKEISQKSYQAIVENWNVSIQPVYMELWTKKISQLQGIDTNDEKMNELSLSQLLNEWDTFRKERKTNDINPVFKNSFSLLTECLQTMRQECIVYQNFVEVFFHISSKHNFEEYIKHFNDPDAPPILLDTVKVMQSDREAAVIETQLVSRIFQPIVTRLSSYFVELVKAEPTVAPALTFYLENEIKSLESSNHEFLLSAVTRMYTQIKQVWSDNVEEQVLHFERISNATTNGEILPGILDLPVGLKNSEDLFQFAKRSMDIKDTDEGYESIELMNSSFRKLSIAATRSITHKEVNSSINPNLSDTAALNNDYMETISLLVNSNWLTEMLSMLNFNKDGIFDTSLQNVKKVFDVEKESYASFLLRDTMPKLTAFVYGVSNIIENTNNVNMTNPSRWAAYSRQNLENILLAYTSHEIETLVKRLHTHMVNDFGYHQENAINNVLCDKLWSCIQGQTVSLYLKLYTVIDKHYRGTNIRFTKNDIISAFEEYKNA
B5: YDL065C (protein, UniProt Q07418 1-339, looked up)
Peroxisomal membrane protein …: MNENEYDNFDDLDDLLDEDPTKLDEAEPDDVQAKGSVYNDSENKEKNAESKDSDGVQVANESEEDPELKEMMVDLQNEFANLMKNNGNENNVKTEDFNKLISALEEAAKVPHQQMEQGCSSLKSNSTDKGTVNGSNPGFKNIVSNTLDRLKENGNKVDTSLAEETKESQRSGQNNNIDDILSQLLDQMVASGGKESAENQFDLKDGEMDDAITKILDQMTSKEVLYEPMKEMRSEFGVWFQENGENEEHKEKIGTYKRQFNIVDEIVNIYELKDYDELKHKDRVTELLDELEQLGDSPIRSANSPLKHGNEEEELMKMLEIDGNDPNLGNLDKELTDGC
B6: YOL147C (protein, UniProt Q12462 2-236, looked up)
Peroxisomal membrane protein …: VCDTLVYHPSVTRFVKFLDGSAGREKVLRLLQYLARFLAVQNSSLLARQLQAQFTTVRKFLRFLKPLNHLQAAAKFYDNKLASDNVVRVCNVLKNIFFAAYLSLDQVNLLRILKVIPVTVLTGKKIPRWSNWCWLFGLLSGLAMDLRKIQTSHAQIAAFVKAKSQSQGDEHEDHKKVLGKAYQDRYTALRRLFWDAADSFIVLNNLGYLSSNEEYVALSGVVTSILGMQDMWKAT
B7: YBR102C (protein, UniProt P38261 1-753, looked up)
Exocyst complex component …: MVEFSLKKARNNWKHVKKSASSPAKQKTPPSPAKPKQKTKKNPYSDLKDPATSYTLPTINARERSRVATSMQRRLSIHNTNYAPPTLDYSMPLPDMPNMIVPNDNVDSSHNNSSFTTENESVSSKGPSNSLNLSTADLSLNDSSYNKVPARSAMRNTVNPSGSNDPFNNSTSLRKMLANPHFNAKDFVHDKLGNASAITIDKFTSNLTDLSIQVQEEVKLNINKSYNEIMTVNNDLNVAMLELKRVRANINDLNEVLDQCTKIAEKRLQLQDQIDQERQGNFNNVESHSNSPALLPPLKAGQNGNLMRRDRSSVLILEKFWDTELDQLFKNVEGAQKFINSTKGRHILMNSANWMELNTTTGKPLQMVQIFILNDLVLIADKSRDKQNDFIVSQCYPLKDVTVTQEEFSTKRLLFKFSNSNSSLYECRDADECSRLLDVIRKAKDDLCDIFHVEEENSKRIRESFRYLQSTQQTPGRENNRSPNKNKRRSMGGSITPGRNVTGAMDQYLLQNLTLSMHSRPRSRDMSSTAQRLKFLDEGVEEIDIELARLRFESAVETLLDIESQLEDLSERISDEELMLLNLISLKIEQRREAISSKLSQSILSSNEIVHLKSGTENMIKLGLPEQALDLFLQNRSNFIQDLILQIGSVDNPTNYLTQLAVIRFQTIKKTVEDFQDIFKELGAKISSILVDWCSDEVDNHFKLIDKQLLNDEMLSPGSIKSSRKQIDGLKAVGLDFVYKLDEFIKKNSDKIR

test system: ABP1; assay: DHFR-PCA on solid medium, bait ABP1 (Fig. 1B); type: cell-based, Saccharomyces cerevisiae; conditions: bait ABP1, label = prey; 2-4 replicates
Text: (§1) Supplement 41467_2021_21873_MOESM8_ESM.xlsx, sheet "Fig1B" | column: medsize; medrep; Ratio; Score

| Molecule | medrep (log2 median colony size normalized to plate background, PCA score) |
| --- | --- |
| B1 | 2.021 |
| B2 | 2.276 |
| B3 | 4.381 |
| B4 | 1.509 |
| B5 | 3.518 |

same assay, conditions: bait ABP1, label = prey; only significant differences showed; PPIs completely lost have a ratio of 0.1 and the gained PPIs 2.5

| Molecule | Ratio (SH3-deleted/WT medrep) |
| --- | --- |
| B1 | 1.374 |
| B4 | 2.5 |
| B5 | 1.321 |

test system: BEM1-1; assay: DHFR-PCA on solid medium, bait BEM1-1 (Fig. 1B); type: cell-based, Saccharomyces cerevisiae; conditions: bait BEM1-1, label = prey; 2-8 replicates
Text: as §1

| Molecule | medrep (log2 median colony size normalized to plate background, PCA score) |
| --- | --- |
| B1 | 3.2032 |
| B2 | 2.78 |
| B3 | 3.511 |
| B4 | 1.89 |
| B6 | 4.705 |
| B7 | 1.504 |
| B5 | 3.086 |

same assay, conditions: bait BEM1-1, label = prey; only significant differences showed; PPIs completely lost have a ratio of 0.1 and the gained PPIs 2.5

| Molecule | Ratio (SH3-deleted/WT medrep) |
| --- | --- |
| B4 | 0.1 |
| B6 | 2.5 |
| B7 | 0.1 |
| B5 | 2.5 |

test system: BEM1-2; assay: DHFR-PCA on solid medium, bait BEM1-2 (Fig. 1B); type: cell-based, Saccharomyces cerevisiae; conditions: bait BEM1-2, label = prey; 2-8 replicates
Text: as §1

| Molecule | medrep (log2 median colony size normalized to plate background, PCA score) |
| --- | --- |
| B1 | 1.843 |
| B2 | 2.78 |
| B3 | 1.7566 |
| B4 | 1.89 |
| B7 | 1.504 |

same assay, conditions: bait BEM1-2, label = prey; only significant differences showed; PPIs completely lost have a ratio of 0.1 and the gained PPIs 2.5

| Molecule | Ratio (SH3-deleted/WT medrep) |
| --- | --- |
| B1 | 0.5753 |
| B2 | 0.1 |
| B3 | 0.5003 |
| B4 | 0.1 |
| B7 | 0.1 |
